Measurements published in the supplement of paper PMC9170038.

Test system: K4 kissing-loop RNA reporter
Test: apparent KD of K4 kissing-loop reporter; higher = weaker reporter binding
Conditions: Eterna round: R107
Method: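 RNA-MaP round R107: designed RNA switches with theophylline, tryptophan, arginine or FMN aptamers are transcribed on-chip within common flanks. They are titrated with a labelled K4 kissing-loop RNA reporter in RNA-MaP buffer (100 mM Tris pH 7.5, 80 mM KCl, 4 mM MgCl2), without ligand or with the indicated ligand. Median apparent KD per design.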

[1] = input ligand: theophylline 20 uM
[2] = input ligand: tryptophan 2.4 mM
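Note: bound reporter read as fluorescence of individual clusters on recovered sequencing chips by microscopy, with normalized cluster intensities fitted with a binding model.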

Sequence: GAGGAUAGCGGAAGGAGCGAGUAAUGGAGUGAUGUUCCAAUCAAUAAAACACGAUAGAGUGCUCAGGUAGGUCGCCGUGGUGGUU [Exclusion Argiie B GF 13]
- apparent KD of K4 kissing-loop reporter (input ligand: FMN 200 uM): 124 nM
- apparent KD of K4 kissing-loop reporter (input ligand: arginine 13.2 mM): 143 nM
- apparent KD of K4 kissing-loop reporter (input ligand: none): 165 nM
- apparent KD of K4 kissing-loop reporter [1]: 277 nM
- apparent KD of K4 kissing-loop reporter [2]: 111 nM

Sequence: AAGCAGUCUCUUGUAACCAUCGAAGAUGGACGAGGACCGGUACGGCCGCCACUCGGAGUGAUGUUCCGAAGACUGCAAAAUAAAA [MatMod 15 - Jieux - Exclusion - Tryptophan A]
- apparent KD of K4 kissing-loop reporter (input ligand: FMN 200 uM): 713 nM
- apparent KD of K4 kissing-loop reporter (input ligand: arginine 13.2 mM): 712 nM
- apparent KD of K4 kissing-loop reporter (input ligand: none): 828 nM
- apparent KD of K4 kissing-loop reporter [1]: 1280 nM
- apparent KD of K4 kissing-loop reporter [2]: 1350 nM

Sequence: AGAGUUUUAUGAGGAUAUGAGAUAGUUAAUGAGUGAGUUAUAGUGUAGUUUGUUUAGUGAUGUUAUUUAGAAGGCGUGAGUGAUG [ssxsmullin]
- apparent KD of K4 kissing-loop reporter (input ligand: FMN 200 uM): 151 nM
- apparent KD of K4 kissing-loop reporter (input ligand: arginine 13.2 mM): 95.9 nM
- apparent KD of K4 kissing-loop reporter (input ligand: none): 122 nM
- apparent KD of K4 kissing-loop reporter [1]: 132 nM
- apparent KD of K4 kissing-loop reporter [2]: 84.4 nM

Sequence: AUUUAAUGUAUAGAUUAUAUACAUAAUUCAGAGGAUAUGCGAAGAAGCAGAAGGCUGGUUGCAGUGAUGUUGCUUUUAUAAUUUA [JR_SSFMNA_Sub009]
- apparent KD of K4 kissing-loop reporter (input ligand: FMN 200 uM): 32.8 nM
- apparent KD of K4 kissing-loop reporter (input ligand: arginine 13.2 mM): 152 nM
- apparent KD of K4 kissing-loop reporter (input ligand: none): 85.9 nM
- apparent KD of K4 kissing-loop reporter [1]: 171 nM
- apparent KD of K4 kissing-loop reporter [2]: 59.9 nM

Sequence: GCCUAGCAGGGAAGGAGCGCCAUAAGAAGUAAAGGAGGGAGUUGAGUGAUGUUCAAAAUGUGGCAGGUAGGUCGCCCUGCUAGGC [KL-SSArg B13]
- apparent KD of K4 kissing-loop reporter (input ligand: FMN 200 uM): 705 nM
- apparent KD of K4 kissing-loop reporter (input ligand: arginine 13.2 mM): 388 nM
- apparent KD of K4 kissing-loop reporter (input ligand: none): 635 nM
- apparent KD of K4 kissing-loop reporter [1]: 490 nM
- apparent KD of K4 kissing-loop reporter [2]: 507 nM

Sequence: GGCAGUGAUGUUGCCUUCGCAAUGCAUGCAGAGGAUAUUCGUUUGGGAAGAAGGCUGCAGCGUUCUCUCGAGUGAUGUUCGGGUG [Same State FMN A GF 19]
- apparent KD of K4 kissing-loop reporter (input ligand: FMN 200 uM): 130 nM
- apparent KD of K4 kissing-loop reporter (input ligand: arginine 13.2 mM): 168 nM
- apparent KD of K4 kissing-loop reporter (input ligand: none): 195 nM
- apparent KD of K4 kissing-loop reporter [1]: 181 nM
- apparent KD of K4 kissing-loop reporter [2]: 177 nM

Sequence: UGAUCUGCAGUGAUGUUGCAGUAGCUGUCAGAGGAUAUCAGACUCAUGAGAAGGCUGACAAUGUCUAACAGCACAAUGCUGUUCA [FMN A SS t6]
- apparent KD of K4 kissing-loop reporter (input ligand: FMN 200 uM): 156 nM
- apparent KD of K4 kissing-loop reporter (input ligand: arginine 13.2 mM): 156 nM
- apparent KD of K4 kissing-loop reporter (input ligand: none): 166 nM
- apparent KD of K4 kissing-loop reporter [1]: 197 nM
- apparent KD of K4 kissing-loop reporter [2]: 146 nM

Sequence: UGAUACCAGACUGAUACCAGCCAGUGAUGUUGGCAAUAACCAAGGCGAGUCAAAGACUCGGGCCCUUGGCAGCAGUCUGGUAUCU [TheoBX 6 #SwitchBubble #StaticStem]
- apparent KD of K4 kissing-loop reporter (input ligand: FMN 200 uM): 134 nM
- apparent KD of K4 kissing-loop reporter (input ligand: arginine 13.2 mM): 150 nM
- apparent KD of K4 kissing-loop reporter (input ligand: none): 133 nM
- apparent KD of K4 kissing-loop reporter [1]: 143 nM
- apparent KD of K4 kissing-loop reporter [2]: 136 nM

Sequence: AAGCAGUCACUCGAAAUCAUCAAAGAUGAACGAGGACCGGUACGGCCGCCACUCGGAGUGAUGUUCCGAAGACUGCAAAAUAAAA [MatMod 2 - Jieux - Exclusion - Tryptophan A]
- apparent KD of K4 kissing-loop reporter (input ligand: FMN 200 uM): 307 nM
- apparent KD of K4 kissing-loop reporter (input ligand: arginine 13.2 mM): 225 nM
- apparent KD of K4 kissing-loop reporter (input ligand: none): 243 nM
- apparent KD of K4 kissing-loop reporter [1]: 274 nM
- apparent KD of K4 kissing-loop reporter [2]: 112 nM

Sequence: UGACUGGACUGAAGGAGCGUUCAGGUAGGUCGCAUAGGAGUGAUGUUCCAAUGAAGGAGCGAGCAGGUAGGUCGCAGUCUAGUCU [ArgBS 13 #DoubleAptamer #SwitchBubble]
- apparent KD of K4 kissing-loop reporter (input ligand: FMN 200 uM): 157 nM
- apparent KD of K4 kissing-loop reporter (input ligand: arginine 13.2 mM): 219 nM
- apparent KD of K4 kissing-loop reporter (input ligand: none): 243 nM
- apparent KD of K4 kissing-loop reporter [1]: 205 nM
- apparent KD of K4 kissing-loop reporter [2]: 158 nM

Sequence: AAAAUAAUCCAGUGAUGUUGGUAACCAGAUACCAGCGACGAAAGUCGCCCUUGGCAGCUGUGGACGUACAAAAUAAGUACGUCCU
- apparent KD of K4 kissing-loop reporter (input ligand: FMN 200 uM): 344 nM
- apparent KD of K4 kissing-loop reporter (input ligand: arginine 13.2 mM): 415 nM
- apparent KD of K4 kissing-loop reporter (input ligand: none): 441 nM
- apparent KD of K4 kissing-loop reporter [1]: 358 nM
- apparent KD of K4 kissing-loop reporter [2]: 312 nM

Sequence: CCGAUACAUUAUUCUACGGCCGAGAGUGAUACCAGCCGUAUUUGUGGCCCUUGGCAGCGCAGAUGCAGUGAUGUUGCAUACUUGU [Same State Theophylline A GF 20]
- apparent KD of K4 kissing-loop reporter (input ligand: FMN 200 uM): 68.7 nM
- apparent KD of K4 kissing-loop reporter (input ligand: arginine 13.2 mM): 93.7 nM
- apparent KD of K4 kissing-loop reporter (input ligand: none): 78.1 nM
- apparent KD of K4 kissing-loop reporter [1]: 96.6 nM
- apparent KD of K4 kissing-loop reporter [2]: 63.5 nM

Sequence: UGAUACCAGACGGCCGCCACUGCGCCAGUCAAUGACUGAGCGCGGUGGCGCUCAGUGAUGUUGUGCAGGACCGGGUCUGGUAUCU [Mod of Eli's TrypBX 8 v6]
- apparent KD of K4 kissing-loop reporter (input ligand: FMN 200 uM): 476 nM
- apparent KD of K4 kissing-loop reporter (input ligand: arginine 13.2 mM): 383 nM
- apparent KD of K4 kissing-loop reporter (input ligand: none): 410 nM
- apparent KD of K4 kissing-loop reporter [1]: 364 nM
- apparent KD of K4 kissing-loop reporter [2]: 398 nM

Sequence: CUGUUUGGUUGAGAGGUUGGGCGGAAUGAUACCAGUAUAUAAGAAUACCCUUGGCAGCAUAAGAAAGAUAUAGUGAUGUUGUAUA [SSTheophA.K]
- apparent KD of K4 kissing-loop reporter (input ligand: FMN 200 uM): 526 nM
- apparent KD of K4 kissing-loop reporter (input ligand: arginine 13.2 mM): 297 nM
- apparent KD of K4 kissing-loop reporter (input ligand: none): 464 nM
- apparent KD of K4 kissing-loop reporter [1]: 536 nM
- apparent KD of K4 kissing-loop reporter [2]: 417 nM

Sequence: AUGUGGAGCGACGUUUCGGGAUAUCGGGAAGGAGCGCUGAUAACGGCAGGUAGGUCGCCUGGUCCAGUGAUGUUGGGCAUGCAUU [Exclusion Arg A GF 24]
- apparent KD of K4 kissing-loop reporter (input ligand: FMN 200 uM): 150 nM
- apparent KD of K4 kissing-loop reporter (input ligand: arginine 13.2 mM): 135 nM
- apparent KD of K4 kissing-loop reporter (input ligand: none): 270 nM
- apparent KD of K4 kissing-loop reporter [1]: 185 nM
- apparent KD of K4 kissing-loop reporter [2]: 155 nM

Sequence: AAUAAUCUAGGUGAUACCAGCUCAACAUGAGUGAUGUUCAUGAACUAAUGUAGAGUUGAGAGCCCUUGGCAGCACCUAGAUAAUA [KL-SSTheoB6]
- apparent KD of K4 kissing-loop reporter (input ligand: FMN 200 uM): 873 nM
- apparent KD of K4 kissing-loop reporter (input ligand: arginine 13.2 mM): 792 nM
- apparent KD of K4 kissing-loop reporter (input ligand: none): 966 nM
- apparent KD of K4 kissing-loop reporter [1]: 458 nM
- apparent KD of K4 kissing-loop reporter [2]: 962 nM

Sequence: UGACUGGAUGGAAGGAGCGCUAAACUCCUAGUGAUGUUAGGGAUAUGAGGCAAAGCCUUGAAGCAGGUAGGUCGCCAUCUAGUCU [FiskerMod 26 - Jieux - Same State - Arginine B]
- apparent KD of K4 kissing-loop reporter (input ligand: FMN 200 uM): 141 nM
- apparent KD of K4 kissing-loop reporter (input ligand: arginine 13.2 mM): 126 nM
- apparent KD of K4 kissing-loop reporter (input ligand: none): 146 nM
- apparent KD of K4 kissing-loop reporter [1]: 146 nM
- apparent KD of K4 kissing-loop reporter [2]: 142 nM

Sequence: CUGCAACAUAACUUCUUCGUCCUAGAAGACUAGGAUAUCAGGAAACUGAGAAGGAGUCUCUGCAGUGAUGUUGCAGCUAGGACGA [[K]'-[F2]'-[F1]'-[F1]-[F2]-[K1]-[K2]-[F]''_Design3]
- apparent KD of K4 kissing-loop reporter (input ligand: FMN 200 uM): 195 nM
- apparent KD of K4 kissing-loop reporter (input ligand: arginine 13.2 mM): 159 nM
- apparent KD of K4 kissing-loop reporter (input ligand: none): 148 nM
- apparent KD of K4 kissing-loop reporter [1]: 197 nM
- apparent KD of K4 kissing-loop reporter [2]: 173 nM

Sequence: GCAUGGGUGCUUGCACAAGUGAUGUUUGGGCGAGGACCGGUACGGCCGCCACUCGUACGUUUAGUUAAAAGACAUCAUGCGAGUC [theeternabot_exclusion_KL_Trp_A_11]
- apparent KD of K4 kissing-loop reporter (input ligand: FMN 200 uM): 291 nM
- apparent KD of K4 kissing-loop reporter (input ligand: arginine 13.2 mM): 246 nM
- apparent KD of K4 kissing-loop reporter (input ligand: none): 356 nM
- apparent KD of K4 kissing-loop reporter [1]: 339 nM
- apparent KD of K4 kissing-loop reporter [2]: 164 nM

Sequence: UGGAUAUCGUUUAGUCUGGUGAGGUCAGAUACCAGACUAGCGAUAGUCCCUUGGCAGCUGAUUAUGAUUGAGUGAUGUUCAAUCG [Theo A Ex t9a]
- apparent KD of K4 kissing-loop reporter (input ligand: FMN 200 uM): 179 nM
- apparent KD of K4 kissing-loop reporter (input ligand: arginine 13.2 mM): 154 nM
- apparent KD of K4 kissing-loop reporter (input ligand: none): 175 nM
- apparent KD of K4 kissing-loop reporter [1]: 180 nM
- apparent KD of K4 kissing-loop reporter [2]: 180 nM

Sequence: CCAUCGCUGUUCGAUACCAGUCAUUUUUUAUUUUAUUUUUUUUUUGGAGUGAUGUUCCAAGACCCUUGGCAGCGGAUAGUGAUGG [whbob_SS_Theo_B_th80]
- apparent KD of K4 kissing-loop reporter (input ligand: FMN 200 uM): 116 nM
- apparent KD of K4 kissing-loop reporter (input ligand: arginine 13.2 mM): 143 nM
- apparent KD of K4 kissing-loop reporter (input ligand: none): 114 nM
- apparent KD of K4 kissing-loop reporter [1]: 145 nM
- apparent KD of K4 kissing-loop reporter [2]: 111 nM
